The values below come from patent JP2008532476A (dated 2008).

For this test, the target named is T1, recombinant mouse Tie1-Fc (mouse, UniProt Q06806 23-755).
T1 construct: extracellular domain; also called mouse Tie1-Fc antigen; mouse Tie1-Fc fusion protein; not shown: Fc
T1 sequence (looked up): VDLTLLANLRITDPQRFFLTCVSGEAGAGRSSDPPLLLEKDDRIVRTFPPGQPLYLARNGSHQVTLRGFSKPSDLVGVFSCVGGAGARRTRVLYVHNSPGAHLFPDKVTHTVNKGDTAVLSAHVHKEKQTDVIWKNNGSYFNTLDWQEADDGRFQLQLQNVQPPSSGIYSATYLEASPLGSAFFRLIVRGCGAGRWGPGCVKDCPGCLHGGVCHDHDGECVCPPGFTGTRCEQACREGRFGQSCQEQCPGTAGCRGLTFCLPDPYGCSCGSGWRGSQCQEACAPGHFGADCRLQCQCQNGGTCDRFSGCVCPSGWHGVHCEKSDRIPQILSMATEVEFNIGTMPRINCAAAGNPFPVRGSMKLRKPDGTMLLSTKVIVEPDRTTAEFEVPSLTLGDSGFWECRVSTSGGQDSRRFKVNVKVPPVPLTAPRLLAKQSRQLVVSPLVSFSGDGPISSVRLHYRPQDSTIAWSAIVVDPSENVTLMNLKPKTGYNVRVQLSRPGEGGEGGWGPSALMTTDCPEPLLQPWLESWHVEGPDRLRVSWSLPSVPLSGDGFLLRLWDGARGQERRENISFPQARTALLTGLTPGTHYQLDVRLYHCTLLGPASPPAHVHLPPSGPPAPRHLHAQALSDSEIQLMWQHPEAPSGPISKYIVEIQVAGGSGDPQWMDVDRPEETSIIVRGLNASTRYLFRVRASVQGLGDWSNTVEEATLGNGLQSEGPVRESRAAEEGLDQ
The test is described as follows: SPR (BIAcore 3000), Fab as analyte over mouse Tie1-Fc immobilised on a sensor chip.

B1: E3b Fab (germline E3 (DX-2220) Fab) (Fab, V domains shown)
VH: EVQLLESGGGLVQPGGSLRLSCAASGFTFSMYGMVWVRQAPGKGLEWVSVISPSGGNTGYADSVKGRFTISRDNSKNTLYLQMNSLRAEDTAVYYCARAPRGYSYGYYYWGQGTLVTVSS
VL: DIQMTQSPSSLSASVGDRVTITCRASQGIGHYLAWYQQKPGKVPKLLIYTASTLQSGVPSRFSGSGSGTDFTLTISSLQPEDVATYYCQQFNSYPHTFGQGTRLEIK
As a reminder, the Kd is a measure of binding affinity in units of concentration. For B1, the Kd was around 3 nM.
